Patent publication US20230235054A1 (BIOATLA, published 2023)

What was measured:
huNectin4-His [1] = biological target: T1, huNectin4-His (human, UniProt Q96NY8 32-349); assay: SPR, huNectin4-His immobilized, pH 7.4; pH 7.4
T1 construct: Immobilized on the SPR chip; also called humanNectin4; human Nectin4; not shown: His tag
T1 sequence (looked up): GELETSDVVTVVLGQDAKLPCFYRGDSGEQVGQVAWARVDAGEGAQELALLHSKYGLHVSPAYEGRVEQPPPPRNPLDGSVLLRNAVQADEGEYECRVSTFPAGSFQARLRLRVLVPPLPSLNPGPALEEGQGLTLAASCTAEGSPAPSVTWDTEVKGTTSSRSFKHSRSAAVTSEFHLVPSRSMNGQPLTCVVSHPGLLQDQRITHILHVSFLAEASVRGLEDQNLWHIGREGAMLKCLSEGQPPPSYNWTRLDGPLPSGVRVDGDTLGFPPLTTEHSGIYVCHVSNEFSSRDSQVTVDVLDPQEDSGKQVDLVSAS
Method: (§1) Binding kinetics of anti-Nectin4 antibodies were measured by surface plasmon resonance using a SPR2/4 instrument (Sierra Sensors, Hamburg, Germany) and flat amine sensor chips. The SPR sensor contained four flow cells (FC1-FC4), each of which was addressed individually or in groups. huNectin4-His was immobilized in FC2, and cynoNectin4-mFc in FC4. No protein was immobilized in FC1 and FC3 which were used as control surfaces for FC2 and FC4, respectively.
(§2) All injections were done at a flow rate of 25 μL/min at 25° C. The sensor surface was activated with 1-ethyl-3-(3-dimethylaminopropyl)-carbodiimide (EDC) and N-hydroxysuccinimide (NHS) (200 mM/50 mM) for 480 seconds. HuNectin4-His (2 μg/mL in 10 mM NaAc, pH4.5) was injected for 480s and the surface was inactivated by injecting 1M ethanolamine-HCl for 480s. CynoNectin4 was immobilized using the same conditions as described for huNectin4-His, except that the cynoNectin4 was diluted into 10 mM NaAc buffer having pH 5.0. The control surface was activated and deactivated using the same conditions, but without injecting protein. PBST buffer (PBS pH 7.4 with 0.05% TWEEN20™) was used as running buffer for the surface preparation. The running solution was switched to PBST with 30 mM sodium bicarbonate with the pH adjusted as indicated in the figures before the analyte injections. The instrument was equilibrated with the running solution for one hour before the first analyte injection.
(§3) The off-rate was measured for 360s. The chip surface was regenerated after each cycle of interaction analysis by injecting 6 μL of 10 mM glycine (pH 2.0). Flow cells 1 and 3 without immobilized protein were used as control surfaces for reference subtraction.

huNectin4-His [2] = biological target: T1, huNectin4-His; assay: SPR, huNectin4-His immobilized, pH 6.5; pH 6.5
Method: as §1, §2, §3

B1: BAP-143-00-02 (antibody, V domains shown)
VH: EVQLVESGGGLVQPGGSLRLSCAASGFTFSSYNMNWVRQAPGKGLEWVSYISSSSSTIYYADSVKGRFTISRDNAKNSLSLQMNSLRDEDTAVYYCARAYYYGMDVWGQGTTVTVSS
VL: DIQMTQSPSSVSASVGDRVTITCRASQGISGWLAWYQQKPGKAPKFLIYAASTLQSGVPSRFSGSGSGTDFTLTISSLQPEDFATYYCQQANSEPPTFGGGTKVEIK
notes: Used as a conjugate with a linker payload (CAB ADC)
huNectin4-His [1]
  Kd: 9.76 nM
  koff: 0.00478 s⁻¹
  kon: 490000 M⁻¹ s⁻¹
huNectin4-His [2]
  Kd: 9.31 nM
  koff: 0.00574 s⁻¹
  kon: 617000 M⁻¹ s⁻¹
